In the nanobody polyreactivity screen of Harvey et al. (2022):

test: yeast display, Sf9 membrane polyspecificity reagent, FACS + sequencing; frameworks hold sequencing errors
How it was run: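 Nanobodies from a synthetic yeast display library (Saccharomyces cerevisiae BJ5465), induced 36–48 hours with galactose, were stained 1 hour at 4 °C with 10% biotinylated, detergent-solubilized Sf9 membrane reagent, enriched on streptavidin microbeads, then FACS-sorted. Anti-HA (expression) and streptavidin (reagent binding) fluorescence set low and high (top ~1%) gates. Polyreactivity labels come from the gate of origin. Genes were colony-PCR amplified, MiSeq 2 × 250 sequenced and filtered by CDR length.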

| Sequence | polyreactivity (PSR sort gate) |
| --- | --- |
| QVQLVESGGGLVQAGGSLRLSCAASGRIFSTYAMGWYRQAPGKERELVAAINSIGGRTYYADSVKGRFTISRDNAKNTVYLQMNSLKPEDTAVYYCAAGYRTRRGLGYYYWGQGTQVTVSS | high polyreactivity |
| QVQLVESGGGLVQAGGSLRLSCAASGRIFSTYTMGWYSQAPGKDRELVARSSWSAGRTYYADSVKGRFTISRDNAKNSVYLQMNSLKPEETAVYYCAADGYTQRGYDYWGQGTQVTVSS | high polyreactivity |
| QVQLVESGGGLVQAGGSLRLSCAASGRIFSYNAMGWYRQAPGKERELFAAISSDGSTYYADSVKGRFTISRDNAKNTVYLEMNSLKPEDTAVYYCAARQVVWFVYTTAQVGSYKVNYWGQGTQVNVSS | low polyreactivity |
| QVQLVESGGGLVQAGGSLRLSCAASGRIFSYNAMGWYRQAPGKERELVASISYSGTSTYYADSVKGRFTISRDNAKKTVYLQMNSLKPEDTAVYYCAALSRRRFGYWGQGTQVTVSS | high polyreactivity |
| QVQLVESGGGLVQAGGSLRLSCAASGRIFSYNTLMRWYRQAPGKERELVAAITFSSASTYYADSVKGRFTISRDNAKNTVYLQMNSLKPEDTAVYYCAAAIRSQSSKYYYWGQGTQVTVSS | low polyreactivity |
| QVQLVESGGGLVQAGGSLRLSCAASGRIFSYYAMGWYRQAPGKEREFVATITYAGGSTYYADSVKGRFTISRDNAKNTVYFQMNSLKPEDTAVYYCAARGYSYRGWRMDYWGQGTQVTVSS | high polyreactivity |
| QVQLVESGGGLVQAGGSLRLSCAASGRIFSYYAMGWYRQAPGKERELVAAINSDGSTDYADSVKGRFTISRDNAKNTVYLQMNSLKPEDTAVYYCAKVWSLGPTGFRAYVRVWYYYWGVGTQVTVSS | low polyreactivity |
| QVQLVESGGGLVQAGGSLRLSCAASGRIFSYYAMGWYRQAPGKERELVAAISWNGGSTYYADSVKGRFTISRDNAKNTVYLQMNSLKPEDTAVYYCIRLGYRTGYERDYWGQGTQVTVSS | high polyreactivity |
| QVQLVESGGGLVQAGGSLRLSCAASGRIFSYYAMGWYRQAPGKERELVAAISWSGGSTYYADSVKGRFTISRDNAKNTVYLQMNSLKPEDTAVYYCAAGVHWDRGDYWGQGTQVTVSS | low polyreactivity |
| QVQLVESGGGLVQAGGSLRLSCAASGRIFSYYAMGWYRQAPGKERELVAAITSGGRTNYADSVKGRFTISRDNAKNTVYLQMNSLNPEDTAVYYCAAIFGYGSTWCRWGKDDYWGQGTQVTVSS | high polyreactivity |
| QVQLVESGGGLVQAGGSLRLSCAASGRIFSYYARGWYRQAPGKERELVATINSGGSTNYADSVKGRFTISRDNAKNTVYLLMNSLKPEDTAVYYCAASPVWWYDYWGQGTQVTVSS | low polyreactivity |
| QVQLVESGGGLVQAGGSLRLSCAASGRIFSYYTMGWYRQAPGKERELVAAITSGDSTNYADSVKGRFTISRDNAKNTVYLQMNSLKPEDNAVYYCNARYSWWRSRVGSSHRPDGYWGQGTQVTVSS | high polyreactivity |
| QVQLVESGGGLVQAGGSLRLSCAASGRIFTAYDMGWYRQAPGKERELVAAITRSSGSTYYADSVKGRFTISRDNAKNTVYLQMNSLKGEDTAVYYCATDGEFWGYDSWGQGTQVTVSS | low polyreactivity |
| QVQLVESGGGLVQAGGSLRLSCAASGRIFTAYYAMGWYRQAPGKERELVASISSSGTYTYADSVKGRFTISRDNAKNTVYLQMNSLKPEDTAVYYCATRKLRTRRYDYGYCGQGTQVTVSS | low polyreactivity |
| QVQLVESGGGLVQAGGSLRLSCAASGRIFTDNAMGWYRQAPGKERELVAAISWDGSSTSYADSVKGRFTISRDNAKNTVYLQMNSLKPEDTAVYDCAAVLYSGLYWYRLDYWGQGTRVTVSS | low polyreactivity |
| QVQLVESGGGLVQAGGSLRLSCAASGRIFTFYAMGWYRQAPGKERELVAVITTGTSTTYADSVKGRVTISRDNAKNTVYLQMNSLKPEDTAVYYCAVESWSRVQGWLAHNYDYWGQGTQVTVSS | low polyreactivity |
